Legend:
Test in all cases: cells, lysate or membranes
[1] = substrate: CC(C)(C)NCC(O)c1cc(O)cc(O)c1; settings: other: HEK293 stably transfected, 2 min uptake, 37 °C, pH 7.4
[2] = substrate: CC(C)(C)NCC(O)c1ccc(O)c(CO)c1; settings: other: HEK293 stably transfected, 2 min uptake, 37 °C, pH 7.4
[3] = substrate: CC(C)(C)NCC(O)c1ccc(O)c(CO)n1; settings: other: HEK293 stably transfected, 2 min uptake, 37 °C, pH 7.4
[4] = substrate: CC(C)NCC(O)c1cc(O)cc(O)c1; settings: other: HEK293 stably transfected, 2 min uptake, 37 °C, pH 7.4
[5] = substrate: CC(CCc1ccc(O)cc1)NCC(O)c1ccc(O)cc1; settings: other: HEK293 stably transfected, 2 min uptake, 37 °C, pH 7.4
Experimental: (§1) Cells were cultured in Dulbecco’s Modified Eagle’s Medium supplemented with 10% fetal bovine serum, 100 U/ml penicillin, and 100 μg/ml streptomycin at 37 °C and 5% CO2 and were passaged twice a week.
(§2) At 48 h prior to the experiment, 6 × 10^5 cells were seeded per well in 12-well plates. When using transiently transfected cells, 5 × 10^5 T-REx-293 cells (Life Technologies) were seeded per well in 12-well plates 72 h prior to the experiment, and they were transfected 24 h later as described previously. Twelve-well plates were precoated with poly-D-lysine.
(§3) Cellular uptake experiments were performed at 37 °C and pH 7.4 using HBSS supplemented with 10 mM Hepes (in the following referred to as HBSS+). Cells were washed with 1 ml prewarmed (37 °C) HBSS+, and the uptake was initiated by adding 400 μl of prewarmed HBSS+ containing the substrate. Uptake was allowed for exactly 2 min and afterward stopped by adding 2 ml ice-cold HBSS+. Cells were washed twice with 2 ml ice-cold HBSS+ and lysed with 80% acetonitrile supplemented with internal standard, 0.1 N NaOH/0.1% SDS, or radioimmunoprecipitation buffer for LC–MS/MS, liquid scintillation counting, or fluorescence spectroscopy detection, respectively. Intracellular substrate concentrations were measured as described in the following and were then normalized to the amount of total protein in the samples as measured using the bicinchoninic acid assay ([51]).
(§4) For LC–MS/MS quantification of intracellular substrate concentrations, the cell lysate was centrifuged at 16,000g for 15 min, and 350 μl of supernatant was evaporated to dryness under nitrogen flow at 40 °C. The sample was reconstituted with 200 μl 0.1% formic acid, and between 2 and 30 μl were injected into the LC–MS/MS system (Table S1).
(§5) An API4000 QTRAP tandem mass spectrometer with ESI interface (AB SCIEX) was used, coupled to a Shimadzu Nexera X2 UHPLC system with LC 30AD pumps and SiL 30AC autosampler (Shimadzu).
(§6) Intracellular concentrations of radioactively labeled substrates MPP^+ and TEA^+ were quantified using liquid scintillation counting. To this end, 400 μl cell lysate was transferred into a 20 ml scintillation vial, 9 ml Aquasafe 500 Plus liquid scintillator (both Zinsser Analytics) was added, and the sample was measured in the Scintillation Counter LS6500 (Beckman Coulter).

[6] = substrate: CC(Cc1ccc(O)cc1)NCC(O)c1cc(O)cc(O)c1; settings: other: HEK293 stably transfected, 2 min uptake, 37 °C, pH 7.4
[7] = substrate: CC(NCCc1ccc(O)cc1)C(O)c1ccc(O)cc1; settings: other: HEK293 stably transfected, 2 min uptake, 37 °C, pH 7.4
[8] = substrate: CNC(=C[N+](=O)[O-])NCCSCc1ccc(CN(C)C)o1; settings: other: HEK293 stably transfected, 2 min uptake, 37 °C, pH 7.4
[9] = substrate: CNC[C@H](O)c1ccc(O)c(O)c1; settings: other: HEK293 stably transfected, 2 min uptake, 37 °C, pH 7.4
[10] = substrate: CNS(=O)(=O)Cc1ccc2[nH]cc(CCN(C)C)c2c1; settings: other: HEK293 stably transfected, 2 min uptake, 37 °C, pH 7.4
[11] = substrate: COc1ccc(CC(C)NCC(O)c2ccc(O)c(NC=O)c2)cc1; settings: other: HEK293 stably transfected, 2 min uptake, 37 °C, pH 7.4
[12] = substrate: NCCc1c[nH]c2ccc(O)cc12; settings: other: HEK293 stably transfected, 2 min uptake, 37 °C, pH 7.4
[13] = substrate: NCCc1c[nH]cn1; settings: other: HEK293 stably transfected, 2 min uptake, 37 °C, pH 7.4
[14] = substrate: NCCc1ccc(O)c(O)c1; settings: other: HEK293 stably transfected, 2 min uptake, 37 °C, pH 7.4
[15] = substrate: O=C(O[C@H]1C[C@H]2CC[C@@H](C1)[N+]21CCCC1)C(O)(c1ccccc1)c1ccccc1; settings: pH 7.4; 37.0 °C
Experimental: as §1, §2, §3, §4, §5, §6

[16] = substrate: [H]/N=C(/N)N/C(=N/[H])NCCc1ccccc1; settings: other: HEK293 stably transfected, 2 min uptake, 37 °C, pH 7.4
Experimental: as §1, §2, §3, §4, §5, §6

[17] = substrate: C[N+](C)(C)CCO; settings: other: HEK293 stably transfected, 2 min uptake, 37 °C, pH 7.4
[18] = substrate: C[N+]1(CC2CC2)CC[C@]23c4c5ccc(O)c4O[C@H]2C(=O)CC[C@@]3(O)[C@H]1C5; settings: other: HEK293 stably transfected, 2 min uptake, 37 °C, pH 7.4
Experimental: as §1, §2, §3, §4, §5, §6

[19] = substrate: NC[C@H](O)c1ccc(O)c(O)c1; settings: other: HEK293 stably transfected, 2 min uptake, 37 °C, pH 7.4

B1: human OCT1 (Homo sapiens) (protein)
chain: MPTVDDILEQVGESGWFQKQAFLILCLLSAAFAPICVGIVFLGFTPDHHCQSPGVAELSQRCGWSPAEELNYTVPGLGPAGEAFLGQCRRYEVDWNQSALSCVDPLASLATNRSHLPLGPCQDGWVYDTPGSSIVTEFNLVCADSWKLDLFQSCLNAGFLFGSLGVGYFADRFGRKLCLLGTVLVNAVSGVLMAFSPNYMSMLLFRLLQGLVSKGNWMAGYTLITEFVGSGSRRTVAIMYQMAFTVGLVALTGLAYALPHWRWLQLAVSLPTFLFLLYYWCVPESPRWLLSQKRNTEAIKIMDHIAQKNGKLPPADLKMLSLEEDVTEKLSPSFADLFRTPRLRKRTFILMYLWFTDSVLYQGLILHMGATSGNLYLDFLYSALVEIPGAFIALITIDRVGRIYPMAMSNLLAGAACLVMIFISPDLHWLNIIIMCVGRMGITIAIQMICLVNAELYPTFVRNLGVMVCSSLCDIGGIITPFIVFRLREVWQALPLILFAVLGLLAAGVTLLLPETKGVALPETMKDAENLGRKAKPKENTIYLKVQTSEPSGT
Km [1]: 197 ± 54.1 µM | Vmax [1]: 0.0008 µmol/min/mg | Vmax/Km [1]: 3.81 µL/min/mg | Km [2]: 395 ± 56.8 µM | Vmax [2]: 0.00138 µmol/min/mg | Vmax/Km [2]: 3.55 µL/min/mg | Km [3]: 29.2 ± 12.2 µM | Vmax [3]: 0.00202 µmol/min/mg | Vmax/Km [3]: 73.5 µL/min/mg | Km [4]: 530 ± 44.9 µM | Vmax [4]: 0.0016 µmol/min/mg | Vmax/Km [4]: 3.03 µL/min/mg | Km [5]: 2.17 ± 0.59 µM | Vmax [5]: 0.000336 µmol/min/mg | Vmax/Km [5]: 162 µL/min/mg | Km [6]: 0.87 ± 0.19 µM | Km [7]: 0.68 ± 0.12 µM | Vmax [7]: 0.000153 µmol/min/mg | Vmax/Km [7]: 226 µL/min/mg | Km [8]: 55.7 ± 4.63 µM | Vmax [8]: 0.00409 µmol/min/mg | Vmax/Km [8]: 75 µL/min/mg | Km [9]: 558 ± 411 µM | Vmax [9]: 0.00112 µmol/min/mg | Vmax/Km [9]: 2.69 µL/min/mg | Km [10]: 65.9 ± 15.1 µM | Vmax [10]: 0.00418 µmol/min/mg | Vmax/Km [10]: 63.6 µL/min/mg | Km [11]: 13.2 ± 3.71 µM | Km [12]: 663 ± 334 µM | Vmax [12]: 0.00618 µmol/min/mg | Vmax/Km [12]: 10 µL/min/mg | Km [13]: 4675 ± 2319 µM | Vmax [13]: 0.00512 µmol/min/mg | Vmax/Km [13]: 1.27 µL/min/mg | Km [14]: 674 ± 194 µM | Vmax [14]: 0.000718 µmol/min/mg | Vmax/Km [14]: 1.04 µL/min/mg | Km [15]: 17.0 ± 5.46 µM | Vmax [15]: 0.00141 µmol/min/mg | Vmax/Km [15]: 86.7 µL/min/mg | Km [16]: 18.7 ± 2.64 µM

B2: mouse Oct1 (Mus musculus) (protein)
chain: MPTVDDVLEHVGEFGWFQKQAFLLLCLISASLAPIYVGIVFLGFTPDHHCRSPGVAELSQRCGWSPAEELNYTVPGLGSAGEASFLSQCMKYEVDWNQSTLDCVDPLSSLAANRSHLPLSPCEHGWVYDTPGSSIVTEFNLVCGDAWKVDLFQSCVNLGFFLGSLVVGYIADRFGRKLCLLVTTLVTSLSGVLTAVAPDYTSMLLFRLLQGMVSKGSWVSGYTLITEFVGSGYRRTTAILYQVAFTVGLVGLAGVAYAIPDWRWLQLAVSLPTFLFLLYYWFVPESPRWLLSQKRTTQAVRIMEQIAQKNRKVPPADLKMMCLEEDASERRSPSFADLFRTPSLRKHTLILMYLWFSCAVLYQGLIMHVGATGANLYLDFFYSSLVEFPAAFIILVTIDRIGRIYPIAASNLVAGAACLLMIFIPHELHWLNVTLACLGRMGATIVLQMVCLVNAELYPTFIRNLGMMVCSALCDLGGIFTPFMVFRLMEVWQALPLILFGVLGLSAGAVTLLLPETKGVALPETIEEAENLGRRKSKAKENTIYLQVQTGKSPHT
Km [1]: 60.4 ± 18.7 µM | Vmax [1]: 0.00295 µmol/min/mg | Vmax/Km [1]: 48.7 µL/min/mg | Km [2]: 52.2 ± 7.27 µM | Vmax [2]: 0.00197 µmol/min/mg | Vmax/Km [2]: 38.2 µL/min/mg | Km [3]: 26.5 ± 12.5 µM | Vmax [3]: 0.00185 µmol/min/mg | Vmax/Km [3]: 76.3 µL/min/mg | Km [4]: 89.8 ± 9.34 µM | Vmax [4]: 0.00424 µmol/min/mg | Vmax/Km [4]: 47.6 µL/min/mg | Km [5]: 2.54 ± 0.83 µM | Vmax [5]: 0.000481 µmol/min/mg | Vmax/Km [5]: 207 µL/min/mg | Km [6]: 6.90 ± 0.56 µM | Km [7]: 6.34 ± 0.89 µM | Vmax [7]: 0.000737 µmol/min/mg | Vmax/Km [7]: 116 µL/min/mg | Km [8]: 84.4 ± 27.0 µM | Vmax [8]: 0.0058 µmol/min/mg | Vmax/Km [8]: 74.1 µL/min/mg | Km [9]: 242 ± 38.6 µM | Vmax [9]: 0.00755 µmol/min/mg | Vmax/Km [9]: 31.2 µL/min/mg | Km [10]: 65.7 ± 17.0 µM | Vmax [10]: 0.00325 µmol/min/mg | Vmax/Km [10]: 50.5 µL/min/mg | Km [11]: 9.81 ± 2.26 µM | Km [17]: 1286 ± 308 µM | Vmax [17]: 0.0166 ± 0.0059 µmol/min/mg | Vmax/Km [17]: 13 µL/min/mg | Km [18]: 8.61 ± 3.12 µM | Km [12]: 257 ± 53.3 µM | Vmax [12]: 0.0162 ± 0.00276 µmol/min/mg | Vmax/Km [12]: 63.9 µL/min/mg | Km [13]: 497 ± 136 µM | Vmax [13]: 0.00596 µmol/min/mg | Vmax/Km [13]: 11.9 µL/min/mg | Km [14]: 285 ± 3.25 µM | Vmax [14]: 0.00171 µmol/min/mg | Vmax/Km [14]: 6 µL/min/mg | Km [19]: 409 ± 60.7 µM | Vmax [19]: 0.00607 µmol/min/mg | Vmax/Km [19]: 11.6 µL/min/mg | Km [15]: 1.81 ± 1.03 µM | Vmax [15]: 0.000163 µmol/min/mg | Vmax/Km [15]: 102 µL/min/mg | Km [16]: 7.53 ± 0.63 µM
